Measured values reported in US20220177597A1 (OSSIANIX, published 2022).
Positions count from the first letter of the chain named. Names may count otherwise.

What was measured:
[1] = biological target: human CD98hc ectodomain (recombinant) (human) (UniProt P08195); assay: ELISA, VNAR-hFc in Expi293 medium on coated ectodomain
[2] = biological target: mouse CD98hc ectodomain (recombinant) (mouse) (UniProt P10852); assay: as above
human serum albumin = biological target: T1, human serum albumin (human, UniProt P02768 25-609); assay: ELISA, VNAR-hFc in Expi293 medium on coated HSA (negative control)
T1 construct: Negative control antigen in ELISA; also called HSA
T1 sequence (P02768 25-609 limits assumed): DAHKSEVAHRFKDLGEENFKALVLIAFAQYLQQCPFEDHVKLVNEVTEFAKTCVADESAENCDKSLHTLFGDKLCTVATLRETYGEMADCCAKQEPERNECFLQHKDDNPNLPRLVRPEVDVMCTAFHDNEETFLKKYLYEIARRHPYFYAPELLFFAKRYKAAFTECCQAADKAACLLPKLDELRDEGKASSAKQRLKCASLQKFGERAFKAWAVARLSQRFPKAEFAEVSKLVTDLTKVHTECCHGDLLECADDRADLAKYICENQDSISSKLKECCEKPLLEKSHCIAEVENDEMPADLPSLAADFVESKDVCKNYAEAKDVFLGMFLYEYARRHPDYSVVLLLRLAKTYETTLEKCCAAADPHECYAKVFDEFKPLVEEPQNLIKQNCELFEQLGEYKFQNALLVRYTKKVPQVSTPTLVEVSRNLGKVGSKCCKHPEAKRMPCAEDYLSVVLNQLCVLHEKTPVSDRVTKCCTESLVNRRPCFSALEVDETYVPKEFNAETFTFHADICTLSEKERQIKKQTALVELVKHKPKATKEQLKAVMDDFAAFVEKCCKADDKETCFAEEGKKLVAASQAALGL
Source text: The clones were reformatted as bivalent VNAR-Fc by cloning the VNARs into the commercial pFUSE vector (pFUSE-hIgG1e3-Fc2). The Fc region of the protein contained CH2 and CH3 domains with the hinge that served as a flexible spacer between the two parts of the Fc-fusion protein. N-termini of the construct contained the IL2 signal sequence to allow secretion. A HEK Expi293 expression system was used to transiently express the proteins. The VNAR clones were expressed as Fc formats in mammalian cells in small (1 ml) scale in 96-well plates. Media was collected and used directly for ELISA in order to confirm binding to the ectodomain of mouse and human CD98hc. Human serum albumin was used as the negative control.

[3] = biological target: human CD98hc ectodomain (recombinant) (human) (UniProt P08195); assay: ELISA, purified VNAR-Fc titrated on plate-coated CD98hc (1 ug/mL)
[4] = biological target: mouse CD98hc ectodomain (recombinant) (mouse) (UniProt P10852); assay: as above

human CD98hc ectodomain (recombinant) (human), sequence (P08195 206-630): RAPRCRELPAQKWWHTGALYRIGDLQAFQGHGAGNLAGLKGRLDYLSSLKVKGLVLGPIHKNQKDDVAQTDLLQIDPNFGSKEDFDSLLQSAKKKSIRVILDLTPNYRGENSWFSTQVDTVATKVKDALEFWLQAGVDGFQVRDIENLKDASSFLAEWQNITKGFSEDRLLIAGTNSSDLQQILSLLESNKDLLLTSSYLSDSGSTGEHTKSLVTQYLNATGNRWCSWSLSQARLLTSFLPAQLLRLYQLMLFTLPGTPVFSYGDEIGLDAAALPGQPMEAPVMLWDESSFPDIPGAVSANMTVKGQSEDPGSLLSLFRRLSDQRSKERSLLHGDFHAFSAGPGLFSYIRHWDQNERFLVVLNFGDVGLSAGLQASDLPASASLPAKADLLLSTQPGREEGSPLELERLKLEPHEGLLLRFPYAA
mouse CD98hc ectodomain (recombinant) (mouse), sequence (P10852 100-526): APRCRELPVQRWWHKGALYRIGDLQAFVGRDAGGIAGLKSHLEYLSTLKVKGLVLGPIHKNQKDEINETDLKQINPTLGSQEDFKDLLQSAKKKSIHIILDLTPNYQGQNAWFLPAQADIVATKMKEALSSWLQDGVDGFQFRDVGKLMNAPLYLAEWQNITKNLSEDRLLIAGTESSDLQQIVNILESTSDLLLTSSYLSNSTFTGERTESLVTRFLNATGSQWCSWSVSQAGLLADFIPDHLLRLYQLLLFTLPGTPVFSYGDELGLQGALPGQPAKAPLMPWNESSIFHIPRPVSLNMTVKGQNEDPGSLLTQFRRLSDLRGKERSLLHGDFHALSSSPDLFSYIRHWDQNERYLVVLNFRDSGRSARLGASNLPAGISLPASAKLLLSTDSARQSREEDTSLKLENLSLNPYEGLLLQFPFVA

B1: G6 VNAR-hFc fusion (Fc fusion)
chain: ARVDQTPQTITKEEGESLTINCVLRVETRALASTSWYRKKSGSTREETISKGGRYVETVNSGSKSFSLRINDLTVEDSGTYRCNVYIRHYSEFTQAPFRDVYGDGTAVTVNA
notes: Bivalent VNAR-Fc, VNAR N-terminal to human IgG1 Fc; Expi293; not shown: human IgG1 Fc (hinge, CH2, CH3) of vector pFUSE-hIgG1e3-Fc2
In the case of B1, the Binding [relative units] (relative units) [1] is reported as 0.042, the Binding [relative units] (relative units) [2] is reported as 0.041 and the “Binding [relative units]” value (human serum albumin) is reported as 0.052 relative units.

B2: E12 VNAR-hFc fusion (Fc fusion)
chain: ARVDQTPQTITKEEGESLTINCVLRTQDPALASTSWYRKKSGSTREETISKGGRYVETVNSGSKSFSLRINDLTVEDSGTYRCNVYFLLAPTKTKLQGIDVYGDGTAVTVNA
notes: as for B1
For B2, the Binding [relative units] (relative units) [1] was 2.19, the Binding [relative units] (relative units) [2] was 0.078 and the EC50 [3] was 0.056 µM. The EC50 [4] was 0.819 µM and the “Binding [relative units]” value (human serum albumin) was 0.056 relative units.

B3: H7A VNAR-hFc fusion (Fc fusion)
chain: PGVDQTEQTIKKEEGESVTIKCVMRVKYPALASTSRYRKKSGSREETISKGGRYVETVNYSSKSISVRINDMTVEDSGRYRCNVYEEYAVDCDALVYQDVYGDGTAVTVNA
notes: as for B1
For B3, the Binding [relative units] (relative units) [1] was 0.043, the Binding [relative units] (relative units) [2] was 0.043 and the “Binding [relative units]” value (human serum albumin) was 0.054 relative units.

B4: H8 VNAR-hFc fusion (Fc fusion)
chain: ARVDQTPQTITKETGESLTINCVLRDSNCALPSTYWYRKKSGSTNEESISKGGRYVETVNSGSKSFSLRINDLVVEDSGTYRCKVGNYCIRLCYDMKFAVDVYGGGTAVTVNA
notes: as for B1
In the case of B4, the Binding [relative units] (relative units) [1] is reported as 0.048, the Binding [relative units] (relative units) [2] is reported as 0.049 and the “Binding [relative units]” value (human serum albumin) is reported as 0.059 relative units.

B5: H7 VNAR-hFc fusion (Fc fusion)
chain: ARVDQTPQTITKEEGESLTINCVLRYNNPALASTSWYRKKSGSTREETISKGGRYVETVNSGSKSFSLRINDLTVEDSGTYRCNVYFFPSFLVDKLQSHDVYGDGTAVTVNA
notes: as for B1
B5 gave a Binding [relative units] (relative units) [1] of 3.93, a Binding [relative units] (relative units) [2] of 0.108 and an EC50 [3] of 0.006 µM. The EC50 [4] was 0.504 µM and the “Binding [relative units]” value (human serum albumin) was 0.072 relative units.

B6: G3 VNAR-hFc fusion (Fc fusion)
chain: ARVDQTPQTITKETGESLTINCVLRDNNCALSTTYWYRKKSGSTNEENISKGGRYVETVNSGSKSFSLRINDLTVEDSGTYRCKVHFFPSFCNSTSIRSVDVYGGGTVVTVNA
notes: as for B1
Binder B6 has a Binding [relative units] (relative units) [1] of 1.48, a Binding [relative units] (relative units) [2] of 0.041 and an EC50 [3] of 0.107 µM. The “Binding [relative units]” value (human serum albumin) was 0.053 relative units.

B7: D1 VNAR-hFc fusion (Fc fusion)
chain: ARVDQTPQTITKEEGESLTINCVLRHNYSALASTSWYRKKSGSTREETISKGGRYVETVNSGSKSFSLRINDLTVEDSGTYRCNVYGISFIEEKIRYDFDVYGDGTAVTVNA
notes: Bivalent VNAR-Fc, VNAR N-terminal to human IgG1 Fc; Expi293; also called D1-hFc; not shown: human IgG1 Fc (hinge, CH2, CH3) of vector pFUSE-hIgG1e3-Fc2
With B7 the Binding [relative units] (relative units) [1] was 3.5, the Binding [relative units] (relative units) [2] was 0.417 and the EC50 [3] was 0.028 µM. For the same binder, the EC50 [4] was 0.19 µM and the “Binding [relative units]” value (human serum albumin) was 0.074 relative units.

B8: G10 VNAR-hFc fusion (Fc fusion)
chain: ARVDQTPQTITKETGESLTINCVLRDSNCALSSTYWYRKKSGSTNEENISKGGRYVETVNSGSKSFSLKINDLTVEDSGTYRCKVVFKLFSGRACAGEKDVYGGGTVVTVNA
notes: as for B1
B8 was tested, and the Binding [relative units] (relative units) [1] was 0.043, the Binding [relative units] (relative units) [2] was 0.041 and the “Binding [relative units]” value (human serum albumin) was 0.051 relative units.

B9: A8 VNAR-hFc fusion (Fc fusion)
chain: ARVDQTPQTITKEEGESLTINCVLRRNFQLASTSWYRKKSGSTREETISKGGRYVETVNSGSKSFSLRINDLTVEDSGTYRCNVYGFVEFAKNIVEFIDVYGDGTAVTVNA
notes: as for B1
B9 was tested, and the Binding [relative units] (relative units) [1] was 2.97, the Binding [relative units] (relative units) [2] was 0.135 and the “Binding [relative units]” value (human serum albumin) was 0.065 relative units.

B10: G12 VNAR-hFc fusion (Fc fusion)
chain: ARVDQTPQTITKETGESLTINCVLRDSNCALSSTYWYRKKSGSTNEALISKGGRYVETVNSGSKSFSLRINDLTVEDSGTYRCNVVQDLRDDCFFRDVYGGGTAVTVNA
notes: as for B1
With B10 the Binding [relative units] (relative units) [1] was 0.044, the Binding [relative units] (relative units) [2] was 0.044 and the “Binding [relative units]” value (human serum albumin) was 0.054 relative units.

B11: C6 VNAR-hFc fusion (Fc fusion)
chain: B10 chain with Q87Y
notes: as for B1
For B11, the Binding [relative units] (relative units) [1] was 0.041, the Binding [relative units] (relative units) [2] was 0.042 and the “Binding [relative units]” value (human serum albumin) was 0.052 relative units.

B12: F12 VNAR-hFc fusion (Fc fusion)
chain: ARVDQTPQTITKEEGESLTINCVLRVHGRALASTSWYRKKSGSTREETISKGGRYVETVNSGSKSFSLRINDLTVEDSGTYRCNVYGLSFGDIEGVKKIDVYGDGTAVTVNA
notes: Bivalent VNAR-Fc, VNAR N-terminal to human IgG1 Fc; Expi293; also called F12-hFc; clone F12; not shown: human IgG1 Fc (hinge, CH2, CH3) of vector pFUSE-hIgG1e3-Fc2
For B12, the Binding [relative units] (relative units) [1] was 3.99, the Binding [relative units] (relative units) [2] was 0.563 and the EC50 [3] was 0.012 µM. For the same binder, the EC50 [4] was 0.072 µM and the “Binding [relative units]” value (human serum albumin) was 0.112 relative units.

B13: H12 VNAR-hFc fusion (Fc fusion)
chain: B12 chain with R29C, G91V
notes: as for B1
For B13, the Binding [relative units] (relative units) [1] was 0.046, the Binding [relative units] (relative units) [2] was 0.045 and the “Binding [relative units]” value (human serum albumin) was 0.055 relative units.

B14: F1 VNAR-hFc fusion (Fc fusion)
chain: B12 chain with F90S
notes: Bivalent VNAR-Fc, VNAR N-terminal to human IgG1 Fc; Expi293; also called Fl; not shown: human IgG1 Fc (hinge, CH2, CH3) of vector pFUSE-hIgG1e3-Fc2
B14 gave a Binding [relative units] (relative units) [1] of 3.76, a Binding [relative units] (relative units) [2] of 0.115 and an EC50 [3] of 0.003 µM. For the same binder, the EC50 [4] was 3.86 µM and the “Binding [relative units]” value (human serum albumin) was 0.073 relative units.

B15: B12 VNAR-hFc fusion (Fc fusion)
chain: ARVDQTPRSVTKETGESLTINCVLRDASYALGSTCWYRKKSGSTNEESISKGGRYVETVNSGSKSFSLRINDLTVEDGGTYRCGVARGWRTLNYLCDVRTGEWSCVWRAAACGDGTAVTVNA
notes: as for B1
In the case of B15, the Binding [relative units] (relative units) [1] is reported as 0.076, the Binding [relative units] (relative units) [2] is reported as 0.084 and the “Binding [relative units]” value (human serum albumin) is reported as 0.081 relative units.

B16: F11 VNAR-hFc fusion (Fc fusion)
chain: ARVDQTPQTITKEEGESLTINCVLRGEFYALASTSWYRKKSGSTREETISKGGRYVETVNSGSKSFSLRINDLTVEDSGTYRCNVYGYRIFSPEVKGPNDVYGDGTAVTVNA
notes: as for B1
B16 was tested, and the Binding [relative units] (relative units) [1] was 3.03, the Binding [relative units] (relative units) [2] was 0.096 and the “Binding [relative units]” value (human serum albumin) was 0.072 relative units.

B17: E12A VNAR-hFc fusion (Fc fusion)
chain: ARVDQTPQTIAREEGESVTINCVVRDSNRALASTSWCSEKYVSTREESISKGGRYVETVNSGSKSFSLRINDLTVEDSGTYRCNVYFFPSFEVDVLQTNDVYGDGTAVTVNA
notes: as for B1
For B17, the Binding [relative units] (relative units) [1] was 0.049, the Binding [relative units] (relative units) [2] was 0.065 and the “Binding [relative units]” value (human serum albumin) was 0.063 relative units.

B18: H6 VNAR-hFc fusion (Fc fusion)
chain: ARVDQTPQTITKEEGESLTINCVLRTHSNALASTSWYRKKSGSTREETISKGGRYVETVNSGSKSFSLRINDLTVEDSGTYRCNVYAFLEIQPNIYHEFDVYGDGTAVTVNA
notes: as for B1
Work on B18 yielded a Binding [relative units] (relative units) [1] of 3.31, a Binding [relative units] (relative units) [2] of 0.186 and an EC50 [3] of 0.006 µM. The EC50 [4] was 0.086 µM and the “Binding [relative units]” value (human serum albumin) was 0.06 relative units.
